Results on one substance are retold here after publication PMC11822720.

This assay deals with Centrolobium microchaete seed lectin (Centrolobium microchaete). The experiment in a line: crystal structure; CML co-crystallised with 5 mM MDM; 200 mM ammonium sulfate, 100 mM HEPES pH 7.5, 25% PEG 3350; space group C121, one dimer per asymmetric unit; dimer also checked by PISA.

As for “Centrolobium microchaete seed lectin (natural protein)”, the stoichiometry N (as a rule, a count of units in the complex or per binding partner) was 2.
